# Results taken from paper PMC4447253 (mBio, 2015).
# B1: TraR-His (GntR-type transcriptional repressor TraR of plasmid pSVH1) (natural protein, Streptomyces venezuelae (plasmid pSVH1), UniProt Q3LAJ7 1-252, looked up)
# chain: MTSTQSEKRVTARSIADDLRGKIRSGQLLPGSVLPTTKALAEEHGVSSKTVSAGIDLLKLEGLVVGEQGGRRRVRADRPITWNLTRFERGARRDSAVMDDWSTAISEAGRTPEQHVSVSRETANSDIAGWLQVPVGDDVVKRVRMRTVDGRPFQLSTSYFPKHVAVGTLLEEPGDVAVPGGILSHIGHPQLRVRDEISVRMPSPEESQELALPPGTPVAQHVRVGYGETGPVRVMVTIAPGDRHTLVYELEV
# B2: SpdB2-His (SpdB2 of plasmid pSVH1) (natural protein, Streptomyces venezuelae (plasmid pSVH1), UniProt Q3LAJ4 1-409, looked up)
# chain: MSTYREEKRLDDQLRAEQKLRNEQLRAEQAREDRRLELEATQQRDAARAEEKRKDAEAKRRQEQAEKKARAAEQQAKKAAAAAKRAKLVRWLKANPATLFVGFVMVASIVPALLSQIGALTGATVAAPMAGLLAAMLEGGAWAITFMGKQAEDAGREPRKYRIGTWAVATVAAAVNFWHGLEAYGEHPWVAFVLGASSLFAIYIWDLKTHGSHGKTKEQKQAEKARRAHVSARRKHHPEIVEQAVKLQAALPYGVLDDESAFAAAWRIHTGAEPGLSAQLYATATEAVLQLGAAFELGDNVRDELLETGFKAARLNPFAELAQVPGSQAGLEENAPQGPASALRPDAPEGKSPEELEALLPDAVAAAAELVAEGRQISAHGLAKKLQIRRVDAALLRDRVIEQRRLHVA
# What was measured:
# cross-linking = biological target: the molecule itself; assay: cross-linking
# native gel or EMSA = biological target: the molecule itself; assay: native gel or EMSA
Protein,stoichiometry N (cross-linking),binding result (native gel or EMSA)
B1,2,
B2,,binds
